Assay results as given in patent publication US20240200091A1, “USE OF PROTOPORPHYRINOGEN OXIDASE” (BEIJING DABEINONG BIOTECHNOLOGY CO., LTD., priority 2021, published 2024).

Columns and labels:
Assay type in all cases: in vivo
[1] = system: transgenic soybean plants; assay: oxyfluorfen tolerance of transgenic soybean plants (spray, grade of pesticide damage); conditions: for The grade of pesticide damage/plant: grade 0 / The grade of pesticide damage/plant: grade 1 / The grade of pesticide damage/plant: grade 2 / The grade of pesticide damage/plant: grade 3: 7 DAT, number of plants of 16 per genotype, grades
[2] = system: transgenic soybean plants; assay: saflufenacil tolerance of transgenic soybean plants (spray, grade of pesticide damage); conditions: for The grade of pesticide damage/plant: grade 0 / The grade of pesticide damage/plant: grade 1 / The grade of pesticide damage/plant: grade 2 / The grade of pesticide damage/plant: grade 3: 7 DAT, number of plants of 16 per genotype, grades
[3] = system: Arabidopsis thaliana T1 plants; assay: oxyfluorfen tolerance of transgenic Arabidopsis thaliana T1 plants (spray, grade of pesticide damage); conditions: for The grade of pesticide damage/plant: grade 0 / The grade of pesticide damage/plant: grade 1 / The grade of pesticide damage/plant: grade 2 / The grade of pesticide damage/plant: grade 3: 7 DAT, number of plants of 24 per genotype, grades
In short: (§1)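 Read-out: injury grade at 7 DAT from injured vs total leaf area (0 = as water-sprayed; 1 = <10%; 3 = 100%); grades 0–1 were rated highly resistant. Plants were 18-day-old glufosinate-selected PPO-transgenic T1 lines plus controls, n = 24 per genotype. Doses: saflufenacil 25/100, sulfentrazone 450/900, flumioxazin 60/240, oxyfluorfen 180/720 g ai/ha.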

[4] = system: Arabidopsis thaliana T1 plants; assay: sulfentrazone tolerance of transgenic Arabidopsis thaliana T1 plants (spray, grade of pesticide damage); conditions: for The grade of pesticide: grade 0 / The grade of pesticide: grade 1 / The grade of pesticide: grade 2 / The grade of pesticide: grade 3: 7 DAT, number of plants of 24 per genotype, grades
In short: as §1

[5] = system: transgenic soybean plants; assay: flumioxazin tolerance of transgenic soybean plants (spray, grade of pesticide damage); conditions: for The grade of pesticide damage/plant: grade 0 / The grade of pesticide damage/plant: grade 1 / The grade of pesticide damage/plant: grade 2 / The grade of pesticide damage/plant: grade 3: 7 DAT, number of plants of 16 per genotype, grades
[6] = system: Arabidopsis thaliana T1 plants; assay: saflufenacil tolerance of transgenic Arabidopsis thaliana T1 plants (spray, grade of pesticide damage); conditions: for The grade of pesticide damage/plant: grade 0 / The grade of pesticide damage/plant: grade 1 / The grade of pesticide damage/plant: grade 2 / The grade of pesticide damage/plant: grade 3: 7 DAT, number of plants of 24 per genotype, grades
In short: as §1

[7] = system: Arabidopsis thaliana T1 plants; assay: flumioxazin tolerance of transgenic Arabidopsis thaliana T1 plants (spray, grade of pesticide damage); conditions: for The grade of pesticide damage/plant: grade 0 / The grade of pesticide damage/plant: grade 1 / The grade of pesticide damage/plant: grade 2 / The grade of pesticide damage/plant: grade 3: 7 DAT, number of plants of 24 per genotype, grades
In short: as §1

B1: PPO-APA: nucleotide sequence encoding Arsenophonus protoporphyrinogen oxidase PPO-AP (SEQ ID NO:65), Arabidopsis thaliana/soybean common codon usage bias (nucleic acid)
DNA: ATGTCTTACCTGCTGTTATATTCAGGGAAAAATGGACAAACCAAGAAGATCATTCTGAAAATAACAGAGTATCTTCGAAAAGAAGGAAAGCAATGTGATGTTAGAGATTTGAACATGGATAAGAACTTCAACCTTTCTGTATATCAGAAGGTGCTCGTTGGTGCCTCGATAAGATATGGTCATTTCAATCCCGCAGTCCTCAATTTTGCTCAGAATCACCAAAAGGAGTTAAACACTATTCAATCAGCTTTCTTTGGCGTGAATTTGATGGCTCGTAAACAAGGAAAAGATACTCCTGAGACAAATGTGTATGTGAGGAAGTTTCTTGCCAAAATTCCATGGCAACCAACAATCACCAATGTTTTCAGTGGAGCGTTGAGGTATCCTCAGTACAAATGGCTTGACCGGATAATGATTCAGTTTATCATGAAGATTACTGGTGGTGAAACAAACAAAAACAAGGAAGTTGAATATACTGATTGGGAAAAGGTAGAGTACTTTGCAAGAGAGTTTAATGCTTTGAAATGA
modifications: The nucleotide sequence of PPO-APA
- The grade of pesticide damage/plant: grade 0 ([1]; oxyfluorfen 360 g ai/ha (2×)): 0 plant
- The grade of pesticide damage/plant: grade 1 ([1]; oxyfluorfen 360 g ai/ha (2×)): 0 plant
- The grade of pesticide damage/plant: grade 2 ([1]; oxyfluorfen 360 g ai/ha (2×)): 8 plant
- The grade of pesticide damage/plant: grade 3 ([1]; oxyfluorfen 360 g ai/ha (2×)): 8 plant
- The grade of pesticide damage/plant: grade 0 ([1]; oxyfluorfen 720 g ai/ha (4×)): 0 plant
- The grade of pesticide damage/plant: grade 1 ([1]; oxyfluorfen 720 g ai/ha (4×)): 0 plant
- The grade of pesticide damage/plant: grade 2 ([1]; oxyfluorfen 720 g ai/ha (4×)): 0 plant
- The grade of pesticide damage/plant: grade 3 ([1]; oxyfluorfen 720 g ai/ha (4×)): 16 plant
- tolerance to oxyfluorfen ([1]; soybean, oxyfluorfen at four-fold field concentration (720 g ai/ha)): no tolerance
- The grade of pesticide damage/plant: grade 0 ([2]; saflufenacil 50 g ai/ha (2×)): 0 plant
- The grade of pesticide damage/plant: grade 1 ([2]; saflufenacil 50 g ai/ha (2×)): 0 plant
- The grade of pesticide damage/plant: grade 2 ([2]; saflufenacil 50 g ai/ha (2×)): 8 plant
- The grade of pesticide damage/plant: grade 3 ([2]; saflufenacil 50 g ai/ha (2×)): 8 plant
- The grade of pesticide damage/plant: grade 0 ([2]; saflufenacil 100 g ai/ha (4×)): 0 plant
- The grade of pesticide damage/plant: grade 1 ([2]; saflufenacil 100 g ai/ha (4×)): 0 plant
- The grade of pesticide damage/plant: grade 2 ([2]; saflufenacil 100 g ai/ha (4×)): 0 plant
- The grade of pesticide damage/plant: grade 3 ([2]; saflufenacil 100 g ai/ha (4×)): 16 plant
- tolerance to saflufenacil ([2]; soybean, saflufenacil, compared with the control vector and CK): basically no tolerance
- The grade of pesticide damage/plant: grade 0 ([3]; oxyfluorfen 180 g ai/ha (1×)): 0 plant
- The grade of pesticide damage/plant: grade 1 ([3]; oxyfluorfen 180 g ai/ha (1×)): 0 plant
- The grade of pesticide damage/plant: grade 2 ([3]; oxyfluorfen 180 g ai/ha (1×)): 0 plant
- The grade of pesticide damage/plant: grade 3 ([3]; oxyfluorfen 180 g ai/ha (1×)): 24 plant
- The grade of pesticide damage/plant: grade 0 ([3]; oxyfluorfen 720 g ai/ha (4×)): 0 plant
- The grade of pesticide damage/plant: grade 1 ([3]; oxyfluorfen 720 g ai/ha (4×)): 0 plant
- The grade of pesticide damage/plant: grade 2 ([3]; oxyfluorfen 720 g ai/ha (4×)): 0 plant
- The grade of pesticide damage/plant: grade 3 ([3]; oxyfluorfen 720 g ai/ha (4×)): 24 plant
- tolerance to oxyfluorfen ([3]; oxyfluorfen at different concentrations (180 and 720 g ai/ha), compared with the control vector and CK): basically no tolerance
- The grade of pesticide: grade 0 ([4]; sulfentrazone 450 g ai/ha (1×)): 0
- The grade of pesticide: grade 1 ([4]; sulfentrazone 450 g ai/ha (1×)): 0
- The grade of pesticide: grade 2 ([4]; sulfentrazone 450 g ai/ha (1×)): 0
- The grade of pesticide: grade 3 ([4]; sulfentrazone 450 g ai/ha (1×)): 24
- The grade of pesticide: grade 0 ([4]; sulfentrazone 900 g ai/ha (2×)): 0
- The grade of pesticide: grade 1 ([4]; sulfentrazone 900 g ai/ha (2×)): 0
- The grade of pesticide: grade 2 ([4]; sulfentrazone 900 g ai/ha (2×)): 0
- The grade of pesticide: grade 3 ([4]; sulfentrazone 900 g ai/ha (2×)): 24
- tolerance to sulfentrazone ([4]; sulfentrazone at different concentrations (450 and 900 g ai/ha)): no tolerance
- The grade of pesticide damage/plant: grade 0 ([5]; flumioxazin 120 g ai/ha (2×)): 0 plant
- The grade of pesticide damage/plant: grade 1 ([5]; flumioxazin 120 g ai/ha (2×)): 0 plant
- The grade of pesticide damage/plant: grade 2 ([5]; flumioxazin 120 g ai/ha (2×)): 0 plant
- The grade of pesticide damage/plant: grade 3 ([5]; flumioxazin 120 g ai/ha (2×)): 16 plant
- The grade of pesticide damage/plant: grade 0 ([5]; flumioxazin 240 g ai/ha (4×)): 0 plant
- The grade of pesticide damage/plant: grade 1 ([5]; flumioxazin 240 g ai/ha (4×)): 0 plant
- The grade of pesticide damage/plant: grade 2 ([5]; flumioxazin 240 g ai/ha (4×)): 0 plant
- The grade of pesticide damage/plant: grade 3 ([5]; flumioxazin 240 g ai/ha (4×)): 16 plant
- tolerance to flumioxazin ([5]; soybean, flumioxazin at different concentrations (120 and 240 g ai/ha)): no flumioxazin tolerance
- The grade of pesticide damage/plant: grade 0 ([6]; saflufenacil 25 g ai/ha (1×)): 0 plant
- The grade of pesticide damage/plant: grade 1 ([6]; saflufenacil 25 g ai/ha (1×)): 0 plant
- The grade of pesticide damage/plant: grade 2 ([6]; saflufenacil 25 g ai/ha (1×)): 0 plant
- The grade of pesticide damage/plant: grade 3 ([6]; saflufenacil 25 g ai/ha (1×)): 24 plant
- The grade of pesticide damage/plant: grade 0 ([6]; saflufenacil 100 g ai/ha (4×)): 0 plant
- The grade of pesticide damage/plant: grade 1 ([6]; saflufenacil 100 g ai/ha (4×)): 0 plant
- The grade of pesticide damage/plant: grade 2 ([6]; saflufenacil 100 g ai/ha (4×)): 0 plant
- The grade of pesticide damage/plant: grade 3 ([6]; saflufenacil 100 g ai/ha (4×)): 24 plant
- tolerance to saflufenacil ([6]; saflufenacil at four-fold field concentration (100 g ai/ha)): no tolerance
- tolerance to saflufenacil ([6]; saflufenacil at one-fold field concentration (25 g ai/ha)): no tolerance
- The grade of pesticide damage/plant: grade 0 ([7]; flumioxazin 60 g ai/ha (1×)): 0 plant
- The grade of pesticide damage/plant: grade 1 ([7]; flumioxazin 60 g ai/ha (1×)): 0 plant
- The grade of pesticide damage/plant: grade 2 ([7]; flumioxazin 60 g ai/ha (1×)): 0 plant
- The grade of pesticide damage/plant: grade 3 ([7]; flumioxazin 60 g ai/ha (1×)): 24 plant
- The grade of pesticide damage/plant: grade 0 ([7]; flumioxazin 240 g ai/ha (4×)): 0 plant
- The grade of pesticide damage/plant: grade 1 ([7]; flumioxazin 240 g ai/ha (4×)): 0 plant
- The grade of pesticide damage/plant: grade 2 ([7]; flumioxazin 240 g ai/ha (4×)): 0 plant
- The grade of pesticide damage/plant: grade 3 ([7]; flumioxazin 240 g ai/ha (4×)): 24 plant
- tolerance to flumioxazin ([7]; flumioxazin at different concentrations (60 and 240 g ai/ha)): basically no tolerance
